T1: Mcl-1, Q07820
T1 chain: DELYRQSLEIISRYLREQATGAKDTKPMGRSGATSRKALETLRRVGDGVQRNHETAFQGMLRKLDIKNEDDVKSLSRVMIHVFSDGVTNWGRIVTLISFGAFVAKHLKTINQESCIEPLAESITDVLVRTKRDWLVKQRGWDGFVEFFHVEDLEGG


Legend:
Bcl-xL, Q07817 = test: peptide SPOT array, c-Myc-tagged receptor at 1 uM or 100 nM, anti-c-Myc-Cy3
Mcl-1, Q07820 = target: T1, Mcl-1, Q07820; test: as above

Chain of Bcl-xL, Q07817 (Q07817 1-209): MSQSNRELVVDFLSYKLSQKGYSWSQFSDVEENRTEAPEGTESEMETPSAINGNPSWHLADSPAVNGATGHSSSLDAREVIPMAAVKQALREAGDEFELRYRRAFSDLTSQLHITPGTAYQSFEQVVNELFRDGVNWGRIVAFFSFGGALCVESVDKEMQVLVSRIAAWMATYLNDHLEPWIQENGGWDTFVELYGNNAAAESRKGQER

Row | Binder | SPOT signal as a fraction of Bim BH3's signal on the same receptor and array (Bcl-xL, Q07817) | SPOT signal as a fraction of Bim BH3's signal on the same receptor and array (Mcl-1, Q07820)
1 | HGTSSRIGSSMKSVLEVMAIGRTFEE | 0.02 | 0.02
2 | KKCQDMIMTELTNAGDDVVVFYNDKA [ITPR3] | 0.02 | 0.01
3 | ELQAPATVQSLGLLGDRLCVGAAGGF [CDC42BPG] | 0.01 | 0.01
4 | DVGTGAGLLEDKKIGDEYFTFITDCK | 0.01 | 0.01
5 | AKFLLYLGHSDSTWGDRMWHFAVSVF [SLC40A1] | 0.03 | 0.03
6 | FRLAQMCGLHIVVHLDELEELINYYQ | 0.02 | 0.02
7 | DVGTGAGLLEIKKILDEYFTFITDCK | 0.02 | 0.02
8 | GLFSATSGVDDKYVADTFGQEVRPVS [DDX7] | 0.02 | 0.01
9 | EKVLIFGGDIDKFAGDALLALWRVER [ADCY10] | 0.02 | 0.02
10 | ISDVQVFGYSLRFNLDLLRSAVQQVN [DBC1] | 0.03 | 0.02
11 | FRLAQMCGLHIVVHADELEELINYYQ | 0.02 | 0.02
12 | LRCEMASTGEDACFGEGIHTAFLKAM | 0.02 | 0.03
13 | CDLLGAKGKDILYIGDHIFGDILKSK [NT5C2] | 0.04 | 0.04
14 | ITVVGDVGGRDAIIVDDIIDDVESFV [PRPSAP1] | 0.02 | 0.01
15 | KLPVVGIGKHLCGMLTDLALRCLVET | 0.04 | 0.03
16 | RHFVIRRGQVLREILEEYGGVMVSFP [HDLBP] | 0.04 | 0.05

Row | Binder | SPOT signal as a fraction of Bim BH3's signal on the same receptor and array (Bcl-xL, Q07817) | SPOT signal as a fraction of Bim BH3's signal on the same receptor and array (Mcl-1, Q07820)
17 | AALFLHAGCQLLTALEDGKVQVWSGS [TEP1] | 0.02 | 0.01
18 | KLPVVGIGKHLCGMATDLALRCLVET | 0.04 | 0.03
19 | TLHFNQRGTWLASGLDDLKVVVWDWV [DCAF8] | 0.02 | 0.02
20 | GSGLHGWAFTDKQFAEMYVAKFAAKG [EEF2] | 0.12 | 0.03
21 | KRALIQCAKDDAKASDEVTRLAKEVA | 0.05 | 0.02
22 | FRFAQLCGLHIVIHLDELEELMCYYQ [CLTCL1] | 0.02 | 0.03
23 | SRQPRDFGDSLARGLKGFLRGVVGGV [VPS13C] | 0.34 | 0.18
24 | KRALIQCAKDIAKALDEVTRLAKEVA | 0.21 | 0.05
25 | DEHISYVATKVCHLGDQLEGVNTPRQ [EXOC5] | 0.02 | 0.01
26 | LSPGRSVTAGIIIVGDEILKGHTQDT [FLAD1] | 0.01 | 0.01
27 | RCELQICGLAMADALEYLCVCGQERT [OBSCN] | 0.02 | 0.02
28 | AIKWDPTGNLDASCSDDMTLKIWSMK [TBL1XR1] | 0.03 | 0.03
29 | TPSRSALSSELSLVLDTTGDTLEKFV [CREBBP] | 0.02 | 0.01
30 | DHTDGVVACAAGLIGDLCTAFGKDVL | 0.02 | 0.02
31 | DHTDGVVACAAGLILDLCTAFGKDVL | 0.01 | 0.02

Source: publication PMC4072508, “Genome-Wide Prediction and Validation of Peptides That Bind Human Prosurvival Bcl-2 Proteins” (PLoS Computational Biology, 2014)
